Experimental data published in article PMC4402694, “A non-canonical mechanism for Crm1-export cargo complex assembly” (eLife, 2015).

B1: GST-Slx9 (natural protein, yeast (S. cerevisiae), UniProt P53251 1-210, looked up)
chain: MVAKKRNTLRSKVSARNSQNFGPDVANNGILDESYDIESDPRAFLHQPKETKKEKLLNRQNTFLSNLKGKSTLNDGIAANFDGISKSSIRRRKRKLREELKPRMQDLLTSLEQEKDLRGIIENSSKDMNNDDDIDMDSKIRFVDTKEMNLKKIEPGSVRIKKNQPNIRNQKGAKALAANETARFNQVLTNQDFQKNPFGALREVIKLQKQ
B2: GST-Ssb1C (domain or fragment, yeast (S. cerevisiae), UniProt P11484 524-613, looked up)
chain: NQAEEFKAADEAFAKKHEARQRLESYVASIEQTVTDPVLSSKLKRGSKSKIEAALSDALAALQIEDPSADELRKAEVGLKRVVTKAMSSR

Tests used:
Settings in all cases: both partners purified
His6-Ran = molecular target: T1, His6-Ran (yeast (S. cerevisiae), UniProt P32835 1-219); test: pull-down; GST fusion immobilised on GSH-Sepharose, incubated with 2 µM His6-Ran loaded with GTP, 1 hr at 4°C
T1 construct: Gsp1 (yeast Ran), wild type; loaded with GTP or with GDP before the assay; the two loadings are two assays; also called His6-Gsp1 (Ran) WT; RanGTP; not shown: His6, N-terminal, kept

His6-Ran^QLGTP [1] = molecular target: T2, His6-Ran^QLGTP (yeast (S. cerevisiae), UniProt P32835 1-219, Gsp1Q71L); test: pull-down; GST fusion immobilised on GSH-Sepharose in PBSKMT, incubated with one purified protein (2 µM His6-Ran variant, or 0.5 µM Slx9 or Slx9-1) for 1 hr at 4°C, competing E. coli lysates present; Coomassie or Western
T2 construct: Gsp1 (yeast Ran), GTP-stabilized mutant Q71L, equivalent to human RanQ69L; also called Gsp1Q71L; RanGTP; not shown: His6, N-terminal, kept

His6-Ran^QLGTP [2] = molecular target: T2, His6-Ran^QLGTP; test: pull-down; trimeric export complex formation: GST fusion immobilised on GSH-Sepharose, incubated with 2 µM His6-Ran^QLGTP and 50 nM Crm1-His6 together; competing E. coli lysates present; Coomassie or Western
Crm1-His6 = Crm1-His6 (yeast (S. cerevisiae), UniProt P30822 1-1084); test: as above

Row | Binder | binding result (His6-Ran) | binding result (His6-Ran^QLGTP [1]) | binding result (His6-Ran^QLGTP [2]) | binding result (Crm1-His6)
1 | B1 | binds | binds | – | –
2 | B2 | – | – | binds | binds
